Measured values from the RNAGym collection of RNA variant scans (doi:10.7554/elife.80360).

B1: Hairpin Ribozyme (parent)
chain: GUCCUCUUUCACGUGCGCGUGAAAGAGAGAAGUGAACCAGAGAAACACACGUUGUGGUAUAUUACCUGGUA

Variants of: B1
Assay: self-cleavage, relative activity (ratio to wild type); higher = more cleavage; co-transcriptional
Work on C48U A49C yielded a self-cleavage of 0.225. With U14A U62G the self-cleavage was 0.125. With U5C U58C the self-cleavage was 0.496. In the case of A59C A64C, the self-cleavage is reported as 0.111. Work on C48U C50A yielded a self-cleavage of 0.0417. U8G U53C gave a self-cleavage of 0.954. G15U U70A gave a self-cleavage of 0.96. Variant C16G C18G has a self-cleavage of 0.863. With A44C G56C the self-cleavage was 0.0706. Variant U7G G21C has a self-cleavage of 0.332. In the case of U7A G51A, the self-cleavage is reported as 0.977. A35G C65A showed a self-cleavage of 0.867. For U8A G17U, the self-cleavage was 0.79. Variant U9G C37G has a self-cleavage of 0.229. Variant A44C U62A has a self-cleavage of 0.156. Work on U33A C46G yielded a self-cleavage of 0.176. With U33G G54C the self-cleavage was 0.145. Work on G40A G51U yielded a self-cleavage of 0.404. U55G C65U showed a self-cleavage of 0.0906. In the case of C4U C46A, the self-cleavage is reported as 0.164. Work on A41U C50G yielded a self-cleavage of 0.756. In the case of A28C G51A, the self-cleavage is reported as 0.517. G51A U55C gave a self-cleavage of 0.405. In the case of C6A G34A, the self-cleavage is reported as 0.817. With G1U U2C the self-cleavage was 0.232. Variant U63A U70C has a self-cleavage of 0.36. Work on U7C G27U yielded a self-cleavage of 0.222. In the case of U20A A61U, the self-cleavage is reported as 0.238. C18U G29A showed a self-cleavage of 0.194. For A23C U55A, the self-cleavage was 0.17. In the case of G17U U67A, the self-cleavage is reported as 0.249. In the case of G21U C50U, the self-cleavage is reported as 0.376. With G25A A31U the self-cleavage was 0.0553. In the case of U5A A43G, the self-cleavage is reported as 0.0784. With G1U U63A the self-cleavage was 0.215. In the case of A24G A30C, the self-cleavage is reported as 0.119. Variant G13A A35G has a self-cleavage of 0.732. For C4G U5G, the self-cleavage was 0.0498. For A31G C50G, the self-cleavage was 0.176. C6U U60A gave a self-cleavage of 0.732. G1C C48U gave a self-cleavage of 0.189. Work on A22C G42A yielded a self-cleavage of 0.146. Variant A22C A44U has a self-cleavage of 0.221. With U8G U67C the self-cleavage was 0.189. With U7A G69A the self-cleavage was 0.315. Variant G25C U70C has a self-cleavage of 0.401. Variant C37G U70C has a self-cleavage of 0.531. G19U A22C showed a self-cleavage of 0.625. In the case of A24C A36U, the self-cleavage is reported as 0.556. Work on U7A A23C yielded a self-cleavage of 0.894. G25A A26G showed a self-cleavage of 0.298. In the case of G15A G40U, the self-cleavage is reported as 0.111. Variant U8G G32A has a self-cleavage of 0.0907. In the case of U67G A71C, the self-cleavage is reported as 0.37. G29U G32A showed a self-cleavage of 0.169. A23U A45C gave a self-cleavage of 0.111. U67C showed a self-cleavage of 0.227. Work on C12A G69A yielded a self-cleavage of 0.289. Work on U53G U60C yielded a self-cleavage of 1.12. Variant A31G A61C has a self-cleavage of 0.16. C18U U55G showed a self-cleavage of 0.382. G32C G69A showed a self-cleavage of 0.149. U8A A49C showed a self-cleavage of 0.165. U5C U7A gave a self-cleavage of 0.395. G34U G57C showed a self-cleavage of 0.552. For U8A C48U, the self-cleavage was 0.117. Work on U5G G42C yielded a self-cleavage of 0.0932. Work on C18G C66G yielded a self-cleavage of 0.19. With C10U U63C the self-cleavage was 0.102. In the case of G17A A24U, the self-cleavage is reported as 1.03. For A39G G54A, the self-cleavage was 0.143. With C10G G25A the self-cleavage was 0.211. In the case of A11G G40U, the self-cleavage is reported as 0.149. U60A A61U showed a self-cleavage of 0.17. A41G A61C gave a self-cleavage of 0.299. C12U C16U showed a self-cleavage of 0.916. Variant A24G A61C has a self-cleavage of 0.203. Variant G13U A24G has a self-cleavage of 0.681. With A24C A61U the self-cleavage was 0.189. G1U C10U showed a self-cleavage of 0.132. U14G A59C gave a self-cleavage of 0.0613. Work on G57C C66G yielded a self-cleavage of 0.113. C16G U20A gave a self-cleavage of 1.02. Work on G25C G29C yielded a self-cleavage of 0.166. U55G A71U showed a self-cleavage of 0.209. Work on G15U G51C yielded a self-cleavage of 1.08. U14A U20C showed a self-cleavage of 1. G17U G68U showed a self-cleavage of 0.207. G56C A71G gave a self-cleavage of 0.28. For A31U A59C, the self-cleavage was 0.0285. Variant U8G C65G has a self-cleavage of 0.275. C12U A30C gave a self-cleavage of 0.193. With A26C A47U the self-cleavage was 0.0646. In the case of C4G G29C, the self-cleavage is reported as 0.0848. Variant U70A A71U has a self-cleavage of 1.63. C12U U52G gave a self-cleavage of 0.875. With U2C A61C the self-cleavage was 0.0902. A28U A36U showed a self-cleavage of 0.276. Work on C12A A23C yielded a self-cleavage of 0.762. For G17A, the self-cleavage was 1.01. With G15U U67C the self-cleavage was 0.267. With A39C G40C the self-cleavage was 0.0323. G25U C37U showed a self-cleavage of 0.427. For C46U A49G, the self-cleavage was 0.24. Variant G40A G69C has a self-cleavage of 0.11. For U8C A28C, the self-cleavage was 0.691. In the case of C38A U53G, the self-cleavage is reported as 0.0628. In the case of G27A A64C, the self-cleavage is reported as 0.189. Work on G17U C46A yielded a self-cleavage of 0.152. In the case of C10G G56C, the self-cleavage is reported as 0.149. A47G C48A showed a self-cleavage of 0.122. Work on U14A G51C yielded a self-cleavage of 0.89. For A35U G69C, the self-cleavage was 0.368. With A43C U60G the self-cleavage was 0.0932. With G19A A64U the self-cleavage was 0.198. With A22C A49U the self-cleavage was 0.204. U8C C48U showed a self-cleavage of 0.272. For C6U A41G, the self-cleavage was 0.768. G32U A43G showed a self-cleavage of 0.0636. Variant C18G A41U has a self-cleavage of 0.906. Variant G27U U58A has a self-cleavage of 0.153. U55G C65G showed a self-cleavage of 0.256. U9G C16U showed a self-cleavage of 0.857. U67A U70C gave a self-cleavage of 0.247. With U8G U67A the self-cleavage was 0.145. In the case of U33A U58G, the self-cleavage is reported as 0.135. Variant C3G G68C has a self-cleavage of 0.188. C16U A41C showed a self-cleavage of 1.4. Variant G56A G57U has a self-cleavage of 0.176. With G15U C18G the self-cleavage was 1.02. Work on A28G A44G yielded a self-cleavage of 0.222. In the case of G15U G69A, the self-cleavage is reported as 0.448. Variant G13C U70A has a self-cleavage of 0.475. For U9A A45U, the self-cleavage was 0.152. With A11C G21U the self-cleavage was 0.799. C12G U52G gave a self-cleavage of 0.718. Work on U53C C65A yielded a self-cleavage of 1.06. Work on U20C G69C yielded a self-cleavage of 0.239. For C18G G21A, the self-cleavage was 0.767. With U20C A45G the self-cleavage was 0.165. With A31U C38G the self-cleavage was 0. In the case of G17C U58C, the self-cleavage is reported as 0.825. G21A A64U showed a self-cleavage of 0.178. In the case of U20C G29C, the self-cleavage is reported as 0.143. C50A U60A showed a self-cleavage of 0.388. C4G U8C gave a self-cleavage of 0.0934. Variant A49C U55G has a self-cleavage of 0.343. Variant A61C A71G has a self-cleavage of 0.286. Work on G1A G29A yielded a self-cleavage of 0.157. With G42U C46U the self-cleavage was 0.205. Variant C18U U20G has a self-cleavage of 1.13. U7A U53G showed a self-cleavage of 0.688. With G1C A43C the self-cleavage was 0.0543. With U14A A30G the self-cleavage was 0.165. In the case of C37U U52G, the self-cleavage is reported as 0.527. In the case of U7C G69U, the self-cleavage is reported as 0.179. Work on C3U A24U yielded a self-cleavage of 0.491. Work on U5G U58G yielded a self-cleavage of 0.0427. Variant U9C A39C has a self-cleavage of 0.366. Variant A24U U63A has a self-cleavage of 0.237. Work on G13U C18G yielded a self-cleavage of 0.722. In the case of C46U U62G, the self-cleavage is reported as 0.237. In the case of G15A A49G, the self-cleavage is reported as 0.527. C18A G54C showed a self-cleavage of 0.395. Work on C4G A30G yielded a self-cleavage of 0.069. C12U U20G gave a self-cleavage of 0.76. Work on C37U G68A yielded a self-cleavage of 0.257.
